Sequences and labels used below:
B1: Ab19 (antibody, human IgG1, kappa, N297A, V domains shown)
VH: EVQLVESGGGLVQPGGSLRLSCAASGIDLSSYAMGWVRQAPGKGLEYIGIIVSYGPTYYASWAKGRFTISRDNSKNTVYLQMNSLRAEDTATYFCARDLDAQSSGYYGAFNIWGQGTLVTVSS
VL: DIQMTQSPSTLSASVGDRVTITCQASQSISTALAWYQQKPGKAPKLLIYAASPLASGVPSRFSGSGSGTEFTLTISSLQPDDFATYYCQSYYGSSNIAFGGGTKVEIKR
notes: also called antibody Ab19
B2: Ab20 (antibody, human IgG1, kappa, N297A, V domains shown)
VH: B1 VH with N76S
VL: B1 VL
notes: also called antibody Ab20
B3: Ab3 (antibody, human IgG1, kappa, N297A, V domains shown)
VH: QSVEESGGRLVTPGGSLTLTCTASGFSLSSYYMSWVRQAPGKGLEWIGIIYPSGSTYYASWAKGRFTISKTSTTVDLKITSPTVEDTATYFCARGGAYATLNLWGPGTLVTVSS
VL: AVLTQTPSPVSAAVGGTVTISCQSSQSVYHNNLLSWYQQKPGQPPKLLIYDASKLTSGVSSRFSGSGSGTQFTLTISGVQCDDAATYYCLGGYDDDADNGFGGGTEVVVKR
notes: also called antibody Ab3
B4: Ab22 (antibody, human IgG1, kappa, N297A, V domains shown)
VH: EVQLVESGGGLVQPGGSLRLSCAASGFSLSSYAMNWVRQAPGKGLEWIGAIRSSGATFFASSVNGRFTISRDNSKNTVYLQMNSLRAEDTAVYYCARDTNDGWYINRLDLWGQGTLVTVSS
VL: AVLTQSPSTLSASVGDRVTITCQSSKSVYSNYLSWFQQKPGKAPKFLIYKASTLASGVPSRFSGSGSGTEFTLTISSLQPDDFATYYCAGGDTNIADNAFGGGTKVEIKR
notes: also called antibody Ab22
B5: Ab21 (antibody, human IgG1, kappa, N297A, V domains shown)
VH: QSVEESGGRLVTPGTPLTLTCTVSGFSLSSYAMNWVRQAPGKGLEWIGAIRSSGATFFASWVNGRFTISKTSTTVDLKITSPTPEDTATYFCARDTNDGWYINRLDLWGPGTLVTVSS
VL: AAVLTQTPSPVSAAVGGTVSISCQSSKSVYSNYLSWFQQKPGQPPKFLIYKASTLASGVPSRFKGSGSGTQFTLTISDVQCDDAATYYCAGGDTNISDNAFGGGTEVVVKR
notes: also called antibody Ab21
B6: Ab23 (antibody, human IgG1, kappa, N297A, V domains shown)
VH: QSLEESGGDLVKPGASLTLTCKASGFSFSSGYYMCWVRQAPGKGLEWIACIYAGSGGSTFFANWAKGRFTISKTSSTTVTLQMTSLTAADTATYFCARDGGYAGYGYAFFNLWGPGTLVTVSS
VL: DVVMTQTPASVSEPVGGTVTIKCQASERIYSGLAWYQQKPGQPPKLLIYGASTLASGVPSRFKGSGSGTDFTLTISDLECDDAAIYYCQCTYYGSSYPNVFGGGTEVVVKR
notes: also called antibody Ab23
B7: Ab24 (antibody, human IgG1, kappa, N297A, V domains shown)
VH: B6 VH
VL: B6 VL with C90A
notes: also called antibody Ab24

Substitutions are numbered along the chain they refer to.

T1 sequence (Q8NBP7 31-692 limits assumed): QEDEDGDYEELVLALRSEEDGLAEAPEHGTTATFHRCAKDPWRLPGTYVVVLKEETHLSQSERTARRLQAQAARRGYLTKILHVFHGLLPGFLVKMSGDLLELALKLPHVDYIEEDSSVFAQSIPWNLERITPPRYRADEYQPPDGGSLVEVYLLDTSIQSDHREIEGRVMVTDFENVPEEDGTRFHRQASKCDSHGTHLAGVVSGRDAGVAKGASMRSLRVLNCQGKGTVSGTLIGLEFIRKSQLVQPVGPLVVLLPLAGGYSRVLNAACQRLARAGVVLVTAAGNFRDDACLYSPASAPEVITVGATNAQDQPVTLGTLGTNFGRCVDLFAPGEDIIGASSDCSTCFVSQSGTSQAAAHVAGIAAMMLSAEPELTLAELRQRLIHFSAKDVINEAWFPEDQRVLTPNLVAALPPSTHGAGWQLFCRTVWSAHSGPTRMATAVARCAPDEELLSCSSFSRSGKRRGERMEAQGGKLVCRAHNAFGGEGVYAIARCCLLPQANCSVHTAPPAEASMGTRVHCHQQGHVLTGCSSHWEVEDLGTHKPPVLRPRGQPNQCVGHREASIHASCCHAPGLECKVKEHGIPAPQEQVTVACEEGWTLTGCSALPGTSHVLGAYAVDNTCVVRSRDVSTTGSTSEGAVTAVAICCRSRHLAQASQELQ

One test addresses T1, human Proprotein Convertase Subtilisin-like/Kexin type 9 (human, UniProt Q8NBP7 31-692, limits assumed).
T1 construct: Biotinylated in the ELISAs; unlabelled analyte in BLI and SPR; also called human PCSK9; PCSK9
The experiment in a line: BLI (Octet QK), biotinylated antibody on streptavidin sensors, human PCSK9 in solution, 1:1 fit. The protocol:
Binding affinities of monoclonal antibodies for PCSK9 were estimated using Bio-Layer Interferometry (BLI) on the Octet QK (ForteBio). Biotinylated antibody was immobilized at different densities to the surface of Streptavidin (SA) Biosensors. A dilution series of human PCSK9 prepared in 1× Kinetics Buffer (NaCl 0.0138 M; KCl 0.00027 M; 0.1 mg/mL BSA, 0.002% Tween and 0.005% Sodium Azide; pH 7.4, at 25° C.) purchased from the manufacturer (ForteBio) was used to query the antibodies. At our chosen concentrations of antigen (˜0.25 μg/mL-2 μg/mL) association times of 15 minutes and dissociation times of 25 minutes were used with the Octet Analysis Software (v6.4, ForteBio), to globally fit data using a 1:1 Langmuir binding model.
For B1, the Kd is 1.3 nM, the off-rate constant (koff) was 0.000116 s⁻¹ and the on-rate constant (kon) stood at 88000 M⁻¹ s⁻¹.
On to B2, for which the Kd came out at 0.6 nM, the off-rate constant (koff) came to 6.63e-05 s⁻¹ and the kon was found to be 108000 M⁻¹ s⁻¹.
For B3, in that order: 5.87 nM, 0.000554 s⁻¹ and 94400 M⁻¹ s⁻¹.

Another test deals with T1, human Proprotein Convertase …. The experiment in a line: SPR (ProteOn XPR36), biotinylated antibody on neutravidin chip, human PCSK9 as analyte, 1:1 fit, mean of 4 densities. The protocol:
Binding affinities of monoclonal antibodies for PCSK9 were estimated using Surface Plasmon Resonance (SPR) on the ProteOn XPR36 (Bio-Rad). Biotinylated antibody was immobilized at progressively increasing densities to the surface of Neutravidin (NLC) Chips. A dilution series of human PCSK9 prepared in 1×HBS-EP+Buffer (10 mM Hepes; 150 mM NaCl; 3 mM EDTA, 0.05% Polysorbate 20; pH 7.6 at 25° C.) purchased from Thermo Scientific and supplemented with 0.2 mg/mL Bovine Serum Albumin (BSA) from Jackson ImmunoResearch and 0.005% sodium azide from VWR was used to query the antibodies. At our chosen concentrations of antigen (˜0.08 μg/mL-6.7 μg/mL) association times of 4 minutes and dissociation times of 30-120 minutes were used with the ProteOn Manager Software (v3.1.0.6, Bio-Rad) to group and fit data using a 1:1 Langmuir binding model. Surfaces were regenerated between analyte queries and after binding antibody to the surface using 10 mM Glycine pH 2.0. Data across 4 different densities were averaged and a single KD and standard propagation of error calculated for each antibody.
On to B4, for which the Kd came to 0.49 nM, the off-rate constant (koff) was 0.000259 s⁻¹ and the kon amounted to 529000 M⁻¹ s⁻¹.
B5 had an equilibrium dissociation constant (Kd) of 0.61 nM, a koff of 0.000354 s⁻¹ and a kon of 580000 M⁻¹ s⁻¹.
In the case of B6, the affinity, expressed as Kd, was 0.04 nM; the koff came out at 3.71e-05 s⁻¹; the on-rate (kon) stood at 928000 M⁻¹ s⁻¹.
B7 showed a Kd of 0.09 nM, an off-rate (koff) of 6.16e-05 s⁻¹ and a kon of 684000 M⁻¹ s⁻¹.
